Source: US20240287208A1 (CONCEPT TO MEDICINE BIOTECH, published 2024)
Positions count from the first letter of the chain named.

T1: human OX40 protein (human, UniProt P43489 29-216, limits assumed)
T1 sequence (looked up): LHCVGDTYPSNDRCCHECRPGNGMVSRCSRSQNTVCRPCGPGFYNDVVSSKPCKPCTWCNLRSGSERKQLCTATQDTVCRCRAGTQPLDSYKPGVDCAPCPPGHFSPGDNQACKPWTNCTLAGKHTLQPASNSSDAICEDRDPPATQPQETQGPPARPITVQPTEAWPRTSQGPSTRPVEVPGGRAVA

B1: 2p551 chimeric monospecific antibody (antibody, V domains shown)
VH: QLHFVESGGGLVQPGGSLRLSCAASGFTLDYYAIGWFRQAPGKEREGVSCISGGGSTRYADSVKGRFTISRDNAKNTVYLQMNSLTPEDTAVYYCAAARLLSTNCVPRDSGSWGQGTQVTVSS
notes: Chimeric monospecific antibody
B2: 2p415 chimeric monospecific antibody (antibody, V domains shown)
VH: B1 VH with Y31H, I34M, V63A, T103R
notes: as for B1
B3: 2p1130 chimeric monospecific antibody (antibody, V domains shown)
VH: EVQVVESGGGLVQPGGSLRLTCAASGFSVDDYGIGWFRQAPGREREGVACITPNGLMMNFANTVGSVAGRFSASRDSGENTVSLQMSSLKPEDTAIYFCAHSRDDSCRGSLSDYDDWGQGTQVTVSS
notes: as for B1
B4: 42p155 chimeric monospecific antibody (antibody, V domains shown)
VH: PSQLVESGGGLVQPGGSLRLSCAASGFAFRSYTMSWVRQAPGKGLEWVSTITHNGAITTYAESAQGRFTISRDNAKNTLYLQMNSLKPEDTAVYYCAQGGGSNYYRESWGQGTQVTVSS
notes: Chimeric monospecific antibody (cAb) made from the VHH; also called 42p155 cAb
B5: 2p1294 chimeric monospecific antibody (antibody, V domains shown)
VH: B4 VH with P1Q, S2V, A28S, S31R, T50A, T52S, H53D, A61T
notes: as for B1
B6: 42p655 chimeric monospecific antibody (antibody, V domains shown)
VH: B4 VH with P1A, S2V, S31R, T50S, H53D, A56S, Y95H
notes: as for B1
B7: 2p957 chimeric monospecific antibody (antibody, V domains shown)
VH: PVQLVESGGGLVQPGGSLRLSCAASGFSFRNYIMSWVRQAPGKGLEWLSSITNSGGITSYTESVKGRFTISRDNAKNTLYLQMNSLKPEDTAVYYCAQGGSDNYYRGSWGQGTQVTVSS
notes: as for B1
B8: 42p495 chimeric monospecific antibody (antibody, V domains shown)
VH: PVQLVESGGNLVQPGGSLRLSCVAPGFTSRNSAMSWVRQAPGKGLEWVSTIYSGKSNTDYADSVKGRFTISTDNAKNTLYLHMNKLKSEDTAVYYCAKGAASDWYVPRDYWGQGTQVTVSS
notes: as for B1
B9: b18 (2p1130) anti-5T4/CD40 bispecific antibody (bispecific antibody, human IgG1, kappa, N297A)
heavy 1: EVQLQQSGPELVKPGASVKISCKASGYAFSSSWMNWVKQRPGKGLEWIGRIYREDGHTNYNGKFKGKATLTADKSSTTAYMQLTSLTSEDSAVYFCANGGAMDYWGQGTSVTVSSASTKGPSVFPLAPSSKSTSGGTAALGCLVKDYFPEPVTVSWNSGALTSGVHTFPAVLQSSGLYSLSSVVTVPSSSLGTQTYICNVNHKPSNTKVDKKVEPKSCDKTHTCPPCPAPELLGGPSVFLFPPKPKDTLMISRTPEVTCVVVDVSHEDPEVKFNWYVDGVEVHNAKTKPREEQYASTYRVVSVLTVLHQDWLNGKEYKCKVSNKALPAPIEKTISKAKGQPREPQVCTLPPSREEMTKNQVSLSCAVKGFYPSDIAVEWESNGQPENNYKTTPPVLDSDGSFFLVSKLTVDKSRWQQGNVFSCSVMHEALHNHYTQKSLSLSPGK
light: DIQMTQSTSSLSASLGDRVTISCRASQDISNYLNWYQQKPDGTVKLLIYYTSRLHSGVPSRFSGSGSGTDYSLTISNLEQEDIATYFCQQDNTLPWTFGGGTKLEIKRTVAAPSVFIFPPSDEQLKSGTASVVCLLNNFYPREAKVQWKVDNALQSGNSQESVTEQDSKDSTYSLSSTLTLSKADYEKHKVYACEVTHQGLSSPVTKSFNRGEC
heavy 2: not shown
notes: also called 1+3 b18 format
B10: b11 (42p155z2) anti-5T4/CD40 bispecific antibody (bispecific antibody, human IgG1, kappa, N297A)
heavy: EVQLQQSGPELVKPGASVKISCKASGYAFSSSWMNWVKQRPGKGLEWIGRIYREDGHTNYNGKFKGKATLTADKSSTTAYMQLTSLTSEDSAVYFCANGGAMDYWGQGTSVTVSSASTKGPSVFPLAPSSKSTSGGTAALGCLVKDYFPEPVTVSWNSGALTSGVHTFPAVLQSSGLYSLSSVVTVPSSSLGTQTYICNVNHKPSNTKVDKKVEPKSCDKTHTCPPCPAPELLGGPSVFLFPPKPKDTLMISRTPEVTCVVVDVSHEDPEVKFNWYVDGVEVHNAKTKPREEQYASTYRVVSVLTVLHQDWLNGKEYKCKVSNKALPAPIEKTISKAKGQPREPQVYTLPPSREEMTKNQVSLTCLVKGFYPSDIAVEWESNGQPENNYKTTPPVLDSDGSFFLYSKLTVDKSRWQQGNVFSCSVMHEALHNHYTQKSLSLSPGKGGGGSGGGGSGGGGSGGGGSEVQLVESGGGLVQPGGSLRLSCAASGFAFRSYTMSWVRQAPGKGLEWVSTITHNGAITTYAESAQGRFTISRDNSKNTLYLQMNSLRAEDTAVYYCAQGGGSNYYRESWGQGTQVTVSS
light: B9 light
notes: also called b 1 (42p155z2); 2+2 b11 format
B11: b13 (42p155z2) anti-5T4/CD40 bispecific antibody (bispecific antibody, human IgG1, kappa, N297A)
heavy: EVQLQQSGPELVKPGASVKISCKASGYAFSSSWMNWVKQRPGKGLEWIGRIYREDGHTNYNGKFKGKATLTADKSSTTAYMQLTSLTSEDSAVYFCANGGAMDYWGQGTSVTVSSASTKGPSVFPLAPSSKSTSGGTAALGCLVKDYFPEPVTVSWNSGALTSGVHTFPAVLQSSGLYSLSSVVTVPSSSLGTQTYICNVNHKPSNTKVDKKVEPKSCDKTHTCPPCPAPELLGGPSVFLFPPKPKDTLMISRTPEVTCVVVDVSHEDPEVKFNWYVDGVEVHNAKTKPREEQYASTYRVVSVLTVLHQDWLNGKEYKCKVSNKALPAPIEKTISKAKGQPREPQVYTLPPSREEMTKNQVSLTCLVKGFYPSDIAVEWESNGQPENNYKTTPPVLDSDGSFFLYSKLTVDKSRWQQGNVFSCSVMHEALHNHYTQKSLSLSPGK
light: DIQMTQSTSSLSASLGDRVTISCRASQDISNYLNWYQQKPDGTVKLLIYYTSRLHSGVPSRFSGSGSGTDYSLTISNLEQEDIATYFCQQDNTLPWTFGGGTKLEIKRTVAAPSVFIFPPSDEQLKSGTASVVCLLNNFYPREAKVQWKVDNALQSGNSQESVTEQDSKDSTYSLSSTLTLSKADYEKHKVYACEVTHQGLSSPVTKSFNRGECGGGGSGGGGSGGGGSGGGGSEVQLVESGGGLVQPGGSLRLSCAASGFAFRSYTMSWVRQAPGKGLEWVSTITHNGAITTYAESAQGRFTISRDNSKNTLYLQMNSLRAEDTAVYYCAQGGGSNYYRESWGQGTQVTVSS
notes: also called 2+2 b13 format

The binders below were run against T2, human CD40 on the cell surface (human, UniProt P25942 21-277) (assay: cell-based or functional assay).
T2 sequence (P25942 21-277): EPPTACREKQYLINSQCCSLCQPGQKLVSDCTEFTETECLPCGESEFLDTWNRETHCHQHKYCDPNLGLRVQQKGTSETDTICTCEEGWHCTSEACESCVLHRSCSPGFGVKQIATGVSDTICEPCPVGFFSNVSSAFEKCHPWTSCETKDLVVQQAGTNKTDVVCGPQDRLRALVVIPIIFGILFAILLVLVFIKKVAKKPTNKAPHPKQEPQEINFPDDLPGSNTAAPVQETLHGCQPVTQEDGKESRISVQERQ

B1 was tested. Which “CD40 NF-κB luciferase reporter (Jurkat), RLU” value (“CD40 NF-κB luciferase reporter” below) did it give?
Its value is > 10 nM.

B2 was tested. Which “CD40 NF-κB luciferase reporter” value did it give?
Its value is > 10 nM.

How did the “CD40 NF-κB luciferase reporter” value turn out when B3 was run?
The value was > 10 nM.

With B4 as the binder, how does the “CD40 NF-κB luciferase reporter” value read?
Its value is > 10 nM.

With B5 as the binder, how does the “CD40 NF-κB luciferase reporter” value read?
The value was > 10 nM.

Which “CD40 NF-κB luciferase reporter” value does the source give for B6 here?
Its value is > 10 nM.

For B7, which “CD40 NF-κB luciferase reporter” value is on record?
The value was > 10 nM.

B8 was tested. Which “CD40 NF-κB luciferase reporter” value did it give?
The value was > 10 nM.

What follows are binders tested against T3, human 4-1BB protein (human, UniProt Q07011 24-186) (assay: ELISA, plate-coated protein).
T3 construct: also called 4-IBB
Experimental: (§1) To evaluate the cross reactivity of chimeric anti-CD40 antibodies to other family members of TNF receptors, the ELISA binding towards human 4-1BB and human OX40 were performed.
(§2) Briefly, microtiter plates were coated with human 4-1BB protein or human OX40 protein at 1 μg/ml in PBS, 100 μl/well at 4° C. overnight, then blocked with 150 μl/well of 1% BSA. Ten-fold dilutions of 42p155, 2p834, 2p931, 42p655, 2p1294, 2p957, 42p495, 3p78, 2p415, 2p442, 2p551, 2p80 and 2p1130 antibodies starting from 100 nM were added to each well and incubated for 1 hour at RT. The plates were washed with PBS/Tween and then incubated with Anti-Human IgG (H&L) (GOAT) Antibody Peroxidase Conjugated for 30 mins at RT. After washing, the plates were developed with TMB substrate and analyzed by spectrophotometer at OD 450 nm.

Does B1 bind?
Result: no binding (tested: 100 nM (highest concentration))

Does B2 bind?
Result: no binding (tested: 100 nM (highest concentration))

Does B3 bind?
Result: no binding (tested: 100 nM (highest concentration))

Does B4 bind?
Result: no binding (tested: 100 nM (highest concentration))

Does B5 bind?
Result: no binding (tested: 100 nM (highest concentration))

Does B6 bind?
Result: no binding (tested: 100 nM (highest concentration))

Does B7 bind?
Result: no binding (tested: 100 nM (highest concentration))

Does B8 bind?
Result: no binding (tested: 100 nM (highest concentration))

The binders below were run against T1, human OX40 protein (assay: ELISA, plate-coated protein).
Experimental: as §1, §2

Does B1 bind?
Result: no binding (tested: 100 nM (highest concentration))

Does B2 bind?
Result: no binding (tested: 100 nM (highest concentration))

Does B3 bind?
Result: no binding (tested: 100 nM (highest concentration))

Does B4 bind?
Result: no binding (tested: 100 nM (highest concentration))

Does B5 bind?
Result: no binding (tested: 100 nM (highest concentration))

Does B6 bind?
Result: no binding (tested: 100 nM (highest concentration))

Does B7 bind?
Result: no binding (tested: 100 nM (highest concentration))

Does B8 bind?
Result: no binding (tested: 100 nM (highest concentration))

Each binder was assayed against T4, human CD40-His protein (human, UniProt P25942 21-193) (assay: ELISA, plate-coated human CD40-His).
T4 construct: His-tagged recombinant protein; also called human CD40-his tag; recombinant CD40 protein
Experimental: (§3) To evaluate the binding activity of clones 42p155, 2p834, 2p931, 42p655, 2p1294, 2p957, 42p495, 3p78, 2p415, 2p442, 2p551, 2p80 and 2p1130, the chimeric monospecific antibody (mAb) from these clones were subjected to ELISA test, along with selicrelumab, the clinical benchmark anti-CD40 agonist antibodies.
as §2, with “human CD40-His” for “human 4-1BB protein or human OX40”, “at 1.0” for “at 1”, “150 µl/well” for “150 μl/well”

T4 sequence (P25942 21-193 limits assumed): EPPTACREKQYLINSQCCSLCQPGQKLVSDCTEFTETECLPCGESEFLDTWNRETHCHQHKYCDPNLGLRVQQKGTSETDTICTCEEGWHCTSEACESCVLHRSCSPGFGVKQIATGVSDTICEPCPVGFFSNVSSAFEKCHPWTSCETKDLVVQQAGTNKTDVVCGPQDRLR

How did the EC50 turn out when B1 was run?
The EC50 was 1.4 nM.

How did the EC50 turn out when B2 was run?
Its EC50 is 1.27 nM.

For B3, which EC50 is on record?
Its EC50 is 2.56 nM.

How did the EC50 turn out when B5 was run?
The EC50 was 1.16 nM.

With B6 as the binder, how does the EC50 read?
Its EC50 is 1.24 nM.

Which EC50 does the source give for B7 here?
Its EC50 is 1.8 nM.

For B8, which EC50 is on record?
Its EC50 is 1.52 nM.

Each binder was assayed against T5, cynomolgus CD40-His protein (cynomolgus, UniProt G7PG38 21-193) (assay: ELISA, plate-coated cynomolgus CD40-His).
T5 construct: His-tagged recombinant protein; also called cyno CD40 antigen
Experimental: as §3
as §2, with “The binding affinity of these clones to cynomolgus CD40 was also tested. Microtiter plates” for “Briefly, microtiter plates”, “with cynomolgus CD40-His” for “with human 4-1BB protein or human OX40”, “at 1.0” for “at 1”, “100 µl/well” for “100 μl/well”, “150 µl/well” for “150 μl/well”, “nm. As shown in FIG. 1B and Table 2, all these clones bound to cynomolgus CD40 at high activity, showing good cross-reactivity between human and cynomolgus CD40 proteins.” for “nm.”

B1 was tested. Which EC50 did it give?
The EC50 was 0.13 nM.

Which EC50 does the source give for B2 here?
The EC50 was 0.23 nM.

With B3 as the binder, how does the EC50 read?
Its EC50 is 0.73 nM.

How did the EC50 turn out when B5 was run?
The EC50 was 0.32 nM.

Which EC50 does the source give for B6 here?
The EC50 was 0.35 nM.

B7 was tested. Which EC50 did it give?
Its EC50 is 1.08 nM.

How did the EC50 turn out when B8 was run?
Its EC50 is 1 nM.

What follows are binders tested against T2, human CD40 on the cell surface (assay: FACS, Jurkat cells overexpressing human CD40, PE anti-human IgG, MFI).
Experimental: To evaluate the binding affinity of 5T4-CD40 bispecific antibodies to cell surface CD40, bispecific antibodies with formats of b 1 (42p155z2), b12 (42p155z2), b13 (42p155z2), b16 (42p155z2), b17 (42p155z2) and b18 (2p1130) were tested in Jurkat cell lines that overexpressed CD40 by FACS. A total number of 1×10⁵ Jurkat-CD40 cells in each well were incubated with 5-fold serially diluted antibodies starting from 100 nM for 30 minutes at 4° C. in FACS buffer. After wash by FACS buffer, PE conjugated-anti-human IgG antibody was added to each well and incubated at 4° C. for 30 minutes. After wash, MFI of PE was evaluated by MACSQuant Analyzer 16.

Which “EC50 (read off the curve)” value does the source give for B9 here?
Its value is ~2 nM.

Does B10 bind?
Result: binds

Does B11 bind?
Result: binds
